Results published in publication PMC5253702.

Target: B/Victoria/504/2000 HA ectodomain (residues 1–530), soluble, His-tagged (influenza B virus B/Victoria/504/2000)
Test: negative stain EM reconstruction

B/Victoria/504/2000 HA ectodomain (residues 1–530), soluble, His-tagged (domain or fragment)
stoichiometry N: 3
